The text below walks through data of paper PMC9408373 (2022).

Experiment [1] concerns the target T1, human CDC42 (aa 1-178), wild type (human, UniProt P60953 1-178). Put plainly: FP; mGDP-bound CDC42.
Experiment [2] has as its target T1, human CDC42 (aa 1-178), wild type. As to the kind of experiment: FP; mGppNHp-bound CDC42.

T1 sequence (P60953 1-178): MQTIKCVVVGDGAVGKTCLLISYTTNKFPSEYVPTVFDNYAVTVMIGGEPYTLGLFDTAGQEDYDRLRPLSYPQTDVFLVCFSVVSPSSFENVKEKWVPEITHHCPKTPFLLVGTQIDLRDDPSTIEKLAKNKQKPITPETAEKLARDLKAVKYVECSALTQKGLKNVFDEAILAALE

B1: human IQGAP1 C794 (aa 863-1657) (domain or fragment)
chain: DPPMVVVRKFVHLLDQSDQDFQEELDLMKMREEVITLIRSNQQLENDLNLMDIKIGLLVKNKITLQDVVSHSKKLTKKNKEQLSDMMMINKQKGGLKALSKEKREKLEAYQHLFYLLQTNPTYLAKLIFQMPQNKSTKFMDSVIFTLYNYASNQREEYLLLRLFKTALQEEIKSKVDQIQEIVTGNPTVIKMVVSFNRGARGQNALRQILAPVVKEIMDDKSLNIKTDPVDIYKSWVNQMESQTGEASKLPYDVTPEQALAHEEVKTRLDSSIRNMRAVTDKFLSAIVSSVDKIPYGMRFIAKVLKDSLHEKFPDAGEDELLKIIGNLLYYRYMNPAIVAPDAFDIIDLSAGGQLTTDQRRNLGSIAKMLQHAASNKMFLGDNAHLSIINEYLSQSYQKFRRFFQTACDVPELQDKFNVDEYSDLVTLTKPVIYISIGEIINTHTLLLDHQDAIAPEHNDPIHELLDDLGEVPTIESLIGESSGNLNDPNKEALAKTEVSLTLTNKFDVPGDENAEMDARTILLNTKRLIVDVIRFQPGETLTEILETPATSEQEAEHQRAMQRRAIRDAKTPDKMKKSKSVKEDSNLTLQEKKEKIQTGLKKLTELGTVDPKNKYQELINDIARDIRNQRRYRQRRKAELVKLQQTYAALNSKATFYGEQVDYYKSYIKTCLDNLASKGKVSKKPREMKGKKSKKISLKYTAARLHEKGVLLEIEDLQVNQFKNVIFEISPTEEVGDFEVKAKFMGVQMETFMLHYQDLLQLQYEGVAVMKLFDRAKVNVNLLIFLLNKKFYGK
The Kd is the equilibrium constant for the complex coming apart. Lower therefore signals a tighter complex. For B1, in experiment [1], the affinity, expressed as Kd, was 64 µM.

B2: human IQGAP1 GRD1 (aa 962-1345) (domain or fragment)
chain: SKEKREKLEAYQHLFYLLQTNPTYLAKLIFQMPQNKSTKFMDSVIFTLYNYASNQREEYLLLRLFKTALQEEIKSKVDQIQEIVTGNPTVIKMVVSFNRGARGQNALRQILAPVVKEIMDDKSLNIKTDPVDIYKSWVNQMESQTGEASKLPYDVTPEQALAHEEVKTRLDSSIRNMRAVTDKFLSAIVSSVDKIPYGMRFIAKVLKDSLHEKFPDAGEDELLKIIGNLLYYRYMNPAIVAPDAFDIIDLSAGGQLTTDQRRNLGSIAKMLQHAASNKMFLGDNAHLSIINEYLSQSYQKFRRFFQTACDVPELQDKFNVDEYSDLVTLTKPVIYISIGEIINTHTLLLDHQDAIAPEHNDPIHELLDDLGEVPTIESLIGESS
Take B2: the results for the dissociation constant Kd in experiment [2] and in experiment [1] were 152 µM and 150 µM, respectively.

B3: human IQGAP2 GRD2 (aa 875-1246) (domain or fragment)
chain: SKERRKTLETYQQLFYLLQTNPLYLAKLIFQMPQNKSTKFMDTVIFTLYNYASNQREEYLLLKLFKTALEEEIKSKVDQVQDIVTGNPTVIKMVVSFNRGARGQNTLRQLLAPVVKEIIDDKSLIINTNPVEVYKAWVNQLETQTGEASKLPYDVTTEQALTYPEVKNKLEASIENLRRVTDKVLNSIISSLDLLPYGLRYIAKVLKNSIHEKFPDATEDELLKIVGNLLYYRYMNPAIVAPDGFDIIDMTAGGQINSDQRRNLGSVAKVLQHAASNKLFEGENEHLSSMNNYLSETYQEFRKYFKEACNVPEPEEKFNMDKYTDLVTVSKPVIYISIEEIISTHSLLLEHQDAIAPEKNDLLSELLGSLGE
B3 had a Kd in experiment [1] of 55 µM.

B4: human IQGAP2 C795 (aa 780-1575) (domain or fragment)
chain: PLTVIRKFVYLLDQSDLDFQEELEVARLREEVVTKIRANQQLEKDLNLMDIKIGLLVKNRITLEDVISHSKKLNKKKGGEMEILNNTDNQGIKSLSKERRKTLETYQQLFYLLQTNPLYLAKLIFQMPQNKSTKFMDTVIFTLYNYASNQREEYLLLKLFKTALEEEIKSKVDQVQDIVTGNPTVIKMVVSFNRGARGQNTLRQLLAPVVKEIIDDKSLIINTNPVEVYKAWVNQLETQTGEASKLPYDVTTEQALTYPEVKNKLEASIENLRRVTDKVLNSIISSLDLLPYGLRYIAKVLKNSIHEKFPDATEDELLKIVGNLLYYRYMNPAIVAPDGFDIIDMTAGGQINSDQRRNLGSVAKVLQHAASNKLFEGENEHLSSMNNYLSETYQEFRKYFKEACNVPEPEEKFNMDKYTDLVTVSKPVIYISIEEIISTHSLLLEHQDAIAPEKNDLLSELLGSLGEVPTVESFLGEGAVDPNDPNKANTLSQLSKTEISLVLTSKYDIEDGEAIDSRSLMIKTKKLIIDVIRNQPGNTLTEILETPATAQQEVDHATDMVSRAMIDSRTPEEMKHSQSMIEDAQLPLEQKKRKIQRNLRTLEQTGHVSSENKYQDILNEIAKDIRNQRIYRKLRKAELAKLQQTLNALNKKAAFYEEQINYYDTYIKTCLDNLKRKNTRRSIKLDGKGEPKGAKRAKPVKYTAAKLHEKGVLLDIDDLQTNQFKNVTFDIIATEDVGIFDVRSKFLGVEMEKVQLNIQDLLQMQYEGVAVMKMFDKVKVNVNLLIYLLNKKFYGK
B4: in experiment [1], the Kd amounted to 113 µM.
